Assay: yeast display, Sf9 membrane polyspecificity reagent, FACS + sequencing; frameworks hold sequencing errors
How it was run: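 Polyreactivity labels are assigned by the sorting gate from which each nanobody was recovered. The gates were low and high (top ~1%), set on anti-HA fluorescence for expression and streptavidin fluorescence for reagent binding. Before sorting, galactose-induced (36–48 hours) yeast display cells were stained for 1 hour at 4 °C with 10% biotinylated, detergent-solubilized Sf9 membrane reagent.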

Sequence: QVQLVESGGGLVQAGGSLRLSCAASGIIFGSNVMGWYREAPGIERELVAAINYGGGSTYYADSVKGRFTISRDNAKKTVYLQMNSLKPEDTAVYYCAARGSRDYRYDYWGQGTQVTVSS
- polyreactivity (PSR sort gate): low polyreactivity

Sequence: QVQHGESGGGLVQAGGSLRLSCAASGRIFYYYAMGWYRQAPGKERELVAAITWNAGITYYADSVKGRFTISRDNAKNTVYLQMNSLKPEDSAVYYCAASRWARGRDYWGQGTQVTVSS
- polyreactivity (PSR sort gate): high polyreactivity

Sequence: QVQLVESGGGLVQAGGSLRLSCAASGLTFTTYTMGWYRQAPGKERELVAAISSRGGSTYYADSVKGRFTISRDNAKNTVYLQMNRLKPEDTAVYYCNAPRPHRMDWGQGTQVTVSS
- polyreactivity (PSR sort gate): high polyreactivity

Sequence: QVQLVESGGGLVQAGGSLRLSCAASGFIFILNAMGWYRQAPGKERELVAGISISGGSTYYADSVKGRFTISRDNAKNTVYLQMNSLKPEDTAVYYCAAPDGDTRVSDQAYDYWGQGTQVTVSS
- polyreactivity (PSR sort gate): low polyreactivity

Sequence: QVQLGESGGGLLQAGGSLRLSCAASGRISSQYAMGLYRQAPWKERELFAAISTSGDRTYYADSVKGRFTISRDNAKNTVYLQMNSLKPEDTAVYYCAKEGPYTYGRDIYEYWGQGTQVTVSS
- polyreactivity (PSR sort gate): low polyreactivity

Sequence: QVQLVESGGGLVQAGGSLRLSCAASGRIFRQNAMGWYRQAPGKERELVAAISRGGGSTYYADSVKGRFTISRDNAKNTVYLQMNSLKPDDTAVYYCAAFQAHQTAFDYWGQGTQVTVSS
- polyreactivity (PSR sort gate): high polyreactivity

Sequence: QVQLVESGGGLVQAVGSLRLSCAASGRIFDTYVMGWYRQAPGKEREMVAAISGSGGSTYYADSVKGRFTISRDNAKNTVYLQMNSLKPEDTAVYYCSAARRYYAYRYDYWGQGTQVTVSS
- polyreactivity (PSR sort gate): high polyreactivity

Sequence: QVQLVESGGGLVQAGGSLRLSCAASGSTFVNNAMGWYRQAPGTERELVAAIRSSDGRTYYADSVKGRFTISRDNAKNTVYLQMNSLKPEDTAVYYCATAVGTKYRTRIFEYYYWGQGTQVTVSS
- polyreactivity (PSR sort gate): high polyreactivity

Sequence: QVQLVESGGGLVQAGGSLRLSCAASGSTFGWNAMGWYRQAPGKERELVAAISRSGGRTYYADSVKGRFTISRDNAKNTVYLQMNSLKPEDTAVYYCAADRSTTGGLRGYWGQGTQVTVSS
- polyreactivity (PSR sort gate): high polyreactivity

Sequence: QVQLVESGGRLVQAGGSLRLSCAASGSIFGYNAMGWYRQAPGKESELVAAIDKSGGNTYYADSVKGRFTISRDNANYTVYLQMNSLKPEDTAVDYCAVRAYRHRSGYSYGYWGQGTQVTVSS
- polyreactivity (PSR sort gate): high polyreactivity

Sequence: QVQLVESGGGLVQAGGSLRLSCAASGRILVHNAMGWYRQAPGKERELVAVITARGASTYYADSVKGRFTISRDNAKNTVYLQMNSLKPEDTAVYYCATDKRPKYYNQYDYWGQGTQVTVSS
- polyreactivity (PSR sort gate): low polyreactivity

Sequence: QVQLVESGGGLVQAGGSLRLSCAASGRTFVIYDMGWYRQAHGKERELVAGITRSGGSTYADSVKGRFTISRDNAKNTVYLQMNSLKPEDTAVYYGARRKLYHKSPYDYWGQGTQVTVSS
- polyreactivity (PSR sort gate): low polyreactivity

Sequence: QVQLVESGGGLVQAGGSLRLTCAASGRIFSNDKGWYRQAPGKERELVAAITWSGGTTHYADSVKGRFTISRDNAKNTVYLQMNSLKPEDTAVYYCARAGGHAYSYWGQGTQVTVSS
- polyreactivity (PSR sort gate): low polyreactivity

Sequence: QVQLVESGGGLVQAGGSLRLSCAASGSNFETNSMGGYRQAPGQERELVAVIWRGASTYYADSVKARFTISRDNAKNTVNLQMNSLKPDDTAVYYCNARPAYAGRYAYTRYYWGQGTQVTVSS
- polyreactivity (PSR sort gate): low polyreactivity

Sequence: QVQVVESGGGLVQAGGSLRLRCAASGRIFAHYAMGWYRQAPGKEREMVAAISSSGTRTYYADSVKGRFTISRDNAKKTVYLQMNSLKPEDTAVYYCAKDSYHTVWGGYWGQGTQVTVSS
- polyreactivity (PSR sort gate): high polyreactivity

Sequence: QVQLVESVGCLVQAGGSLRLSCATSGSIFRYYTMGWYRQPPGKERELVARISSSGSTNYADSVKGRFTISRDNGKNTVYLQMNSLKPEDTAVYYCAARGFSWAGYFYWGQGTQVTVSS
- polyreactivity (PSR sort gate): low polyreactivity

Sequence: QVQLVESGGGLVQAGGSLRLSCAASGRTFYPYAMGWYRQATGKERELVAAIDYSSATTYYADSVKGRFTISRDNAKNTVYLQMNSLKPEDTAVYYCARVGIGVGWSKLNYWGQGTQVTVSS
- polyreactivity (PSR sort gate): low polyreactivity

Sequence: QVQLVESGGGLVQAGGSLRLSCAASGSIFTSNAMGWYRQAPGKERELVAAISWSGTSTYYADSVKGRFTISRDNAKNTVYLQMNSLKPEDTAVYYCNADTNYWEDDYWGQGTQVTVSS
- polyreactivity (PSR sort gate): low polyreactivity

Sequence: QVHLVESAAGLVQEGGSLRVSCAASGRIFDIYAMGGYRQSTGKERELVAAITLRGGTTYADSVKGRFTISRDNAKNSVYLQMNSLKPEDTAVYYCARYHWYYRVSKSESWGQGTQVTVSS
- polyreactivity (PSR sort gate): high polyreactivity

Sequence: QVQLVESGGGLVQAGGSLRLSCADSGIISIFNVIGWYRQAPGKERELVASITGRGGSTFYADSVKGRFTISRDNAKNTVYLQMNILKPEDTAVYYCATDTGYTYPVTGLYDYWGQGTQVTVSS
- polyreactivity (PSR sort gate): low polyreactivity

Sequence: QVQLVESGGGLVQAGGSLRLSSADSGRTFWDNTMGWYRQAPGKERELVAAISGGDSTYYADSVKGRFTISRDNAKNTVYLQMNSLKPEDTAVYYCAAAYATPTLYYYWGQGTQVTVSS
- polyreactivity (PSR sort gate): low polyreactivity

Sequence: QVQLVESGGGLVQAGGSLRLSCAASGRIFGDYGMGWYRQAPGNERELVAAITDRGGTTYYADSVKGRFTISRDNAKNTVYLQMNSLKPEDTAVYYCNARQSDIFDYDYWGQGTQVTVSS
- polyreactivity (PSR sort gate): low polyreactivity

Sequence: QVQLVESGGGLVQAGGSLRLSCAASGFTFRQYALGWYRQAPGKERELVAAISSGGSTYYADSVKGRFTISRDNAKNTVYLQMNSLKPEDTAVYYCNAVARYYVAYDMYWGQGTQVTVSS
- polyreactivity (PSR sort gate): high polyreactivity

Sequence: QVQHVESGGGLVQAGGSLRLSCAASGLTFSQNAMGWYRQPQGQERELVAAISSSGTSTYYADSVKGRFSISRDNAKNTVYLQMNSVKPEDTAVYYCNAPPGTFQWQGHSDYWGQGTQVTVSS
- polyreactivity (PSR sort gate): low polyreactivity

Sequence: QVQLVESGGGLVQAGGSLRLSCAASGYGYVMGWYRQAPGKERELVAAISRSGGSTYYADSVKGRFTISRDNAKNTVYFQMNSLIPEDTAVYDCAARWPGAYHDYGYWGQVTQVTVSS
- polyreactivity (PSR sort gate): high polyreactivity

Sequence: QVQLVESGGGLVQAGGSLRLSSAASGLTFQEYAMGWYRQAPGKESELVAAISWSGGSTYYADSVKGRFTISRDNAKNTVYLQMNSLKPEDTAVYYCAAEAYEEYITGWYAYDYWGQGTQVTVSS
- polyreactivity (PSR sort gate): high polyreactivity

Sequence: QVQLVESGGGLVQAGGSLRLSCAASGSIFGRNVMGWYRQAPGKERELVARITRGGSTNYADSVKGRFTISRDNAKNTVYLQMNRLQPEDTAVYYCAAGARQYRGVPDRYGYWGQGTQVTVSS
- polyreactivity (PSR sort gate): low polyreactivity

Sequence: QVQLVESGGGLVQAGGSLRLSCAASGSIFSYYTMGWYRQAPGKERELVAAISFRGTSTYYADSVKGRFTISRDNAKNTVYLQMNSLKPEDTAVYYCAKRALYYPTYPKYDTYNRYYWGQGTQVTVSS
- polyreactivity (PSR sort gate): high polyreactivity

Sequence: QVQLLESGGGLVQAGGILRLSCAASGSTFYPYAMGWSRQAPGKDRELVAAITGTGGSTYYADSVKGRFRISLDNAKNTVDLQMNSLKPEDPAVYYCATRRRYYYSGYNYWGQGTQVTVSS
- polyreactivity (PSR sort gate): high polyreactivity

Sequence: QVQLVESGGCLVQAGGSLRLSCAASGFTFRYYAMGWYRQAPGKERELVASITGHGGSTYYADSVKGRFTISRDNAKNTVYLQMKSLKPEDTAVYYCNARVRGYYEYNYWGQGTQVTVST
- polyreactivity (PSR sort gate): high polyreactivity

Sequence: QVQLVESGGGLVQAGGSLRLSCAASGRIFAHYAMGWYRQAPGKEMELFATISLSVGSTYYADSVKGRFTISRDNAKNTVYLQMNSLKPEDTSVYYCNATGYYATSHITYDYWGQVTQVTVSS
- polyreactivity (PSR sort gate): low polyreactivity

Sequence: QVQLVESGGGLVQAGGSLRLSCAASGFTFSRNAMGWYRQAPGKERELVAAIDSGGSTDYADSVKGRFTISRDNAKNTVYLQLNSLKPEDTAVYYCAKASSATRYVQLRQDYDYWGQGTQVTVSS
- polyreactivity (PSR sort gate): low polyreactivity

Sequence: QVQLEDSGGGLVQAGGSLRLSCAASGRTFVFKAMGWYRPAPGKERELVAAITISGGSTYYADSVKGRFTISRDNAKNTVYLQMNSLKPEDTAVYSCNADSKIEVFSYIYDYWGQGTQVTVSS
- polyreactivity (PSR sort gate): high polyreactivity

Sequence: QVQLVESGGGLVQAGGSLRLSCAASGSIFDVYTMGWDREAPGKERELVAAINTGGGSTYYADSVKGRFTISRDNAKNTVYLQMNSLKPEDTAVYYCAASVYHYGPLYYWGQGTQVTVSS
- polyreactivity (PSR sort gate): low polyreactivity

Sequence: QVPLVESGGGLVQAGGRLRISCAASGITCTFYSMGWYREAPGKESELVAAISRRGGSTYYADSVKGRFTISRDNEKNTVYLHMNSLKPEDTAVYYCAARGYRPMDYWGQGTQVTVSS
- polyreactivity (PSR sort gate): high polyreactivity

Sequence: QVQLVESGGGLVQAGGSLRLSCAASGRIFNRYAMGWSRQAPGKERELVAAITTSADSTYADSVKGRFTISRDNAKNTVYLQRNSLKPEDTAVYYCNVASRQGSTYDYWGQGTQVTVSS
- polyreactivity (PSR sort gate): high polyreactivity

Sequence: QGQLVESGGGLVQAGGSLRFSCAASGSTFVWYAMGWYRQAPGKERELVAGINRSGGSRYYADSVKGRFTILRDNAKNTVYLQMNSLKPEDTAVYYCAARGKRFRNSRIAYDYWGKGTQVTVSS
- polyreactivity (PSR sort gate): high polyreactivity

Sequence: QVQLVESGGGLVQAGGSLRLSCAASGFTFWIYAMGWYRQAPGKERELVAAISASGGSTRYADSVKVRFTISRDNAKNTVYLQMNSLKPEDTAVYYCAAYHGLRRGFDYWGPGTQVTVSS
- polyreactivity (PSR sort gate): high polyreactivity

Sequence: QVQLVESGGGLVQAGGSLRLSCAASGSTIYTYVMGWYRPAPGKERELVAAISWSGSSTYYADSVKGRFTISRDNAKNTVYLQMNSLKPEDTAVYYCNAQYRRGWWGVEYGYWGQGTQVTVSS
- polyreactivity (PSR sort gate): low polyreactivity

Sequence: QDQLVESGGGLVQAGGSLRLICAASGLTFKVYAMGWYRQAPGKERELVAAISWSGGSTYYADSVKGRFTISRDNAKNTVYLQMNSLKPEDTAVYYCAVEASYYVVFFPYEYWGQGTQVTVSS
- polyreactivity (PSR sort gate): low polyreactivity

Sequence: QVQLVESGGGLVQAGGSLRLSCAASGRNIHFNAMGWYRQAPGKERELVAGITFIGTSTYYADSVKGRFTISRDNAKNTVYLQMNSLKPDDTAVYYFAASAVALPYYAGDYDYWGQATQVTVSS
- polyreactivity (PSR sort gate): low polyreactivity

Sequence: QDQLVDSGGGLVQAGGSLSLSCAASGRNFGLNAKGWYRQAPGKEREFVAAIDWNDASTFYADSVKGRFTISRDNAENTVYLQMNSLKPVETAVYYCAAPWWVTTGTKFDYWGQGTQVTVSS
- polyreactivity (PSR sort gate): high polyreactivity

Sequence: QVQLVESGGGLVQAGGSLRLSCAASGITFSFYAMGWYRQAPGKERELVATIDSGGSTNYADSVKGRFTISRDNAKNTVYLQMNSLKPEDTAVYYCAADGVWYYYDMDYWGQGTQVTVSS
- polyreactivity (PSR sort gate): low polyreactivity
